Test results taken from PMC7376121, “In-Lipid Structure of Pressure-Sensitive Domains Hints Mechanosensitive Channel Functional Diversity” (Biophysical Journal, 2020).
Changes are numbered by the printed parent chain. In names and notes the source's numbering stands.

B1: Mycobacterium tuberculosis MscL Y87C, MTSSL spin-labelled (TbMscL Y87R1) (natural protein)
chain: MLKGFKEFLARGNIVDLAVAVVIGTAFTALVTKFTDSIITPLINRIGVNAQSDVGILRIGIGGGQTIDLNVLLSAAINFFLIAFAVCFLVVLPYNTLRKKGEVEQPGDTQVVLLTEIRDLLAQTNGDSPGRHGGRGTPSPTDGPRASTESQ
modifications: MTSSL spin label on the cysteine at 87 (R1)
notes: also called TbY87R1
B2: Mycobacterium tuberculosis MscL L89C, MTSSL spin-labelled (TbMscL L89R1) (natural protein)
chain: B1 chain with C87Y, L89C
modifications: MTSSL spin label on the cysteine at 89 (R1)
notes: also called TbL89R1
B3: Mycobacterium tuberculosis MscL F88C, MTSSL spin-labelled (TbMscL F88R1) (natural protein)
chain: B1 chain with C87Y, F88C
modifications: MTSSL spin label on the cysteine at 88 (R1)
notes: also called TbF88R1

Target: the molecule itself
Test: PELDOR/DEER; spin-labelled single-cysteine channel in DDM detergent solution (50 mM sodium phosphate pH 7.5, 300 mM NaCl, 0.05% DDM), diluted 1:1 with deuterated ethylene glycol, flash frozen; Q band, 50 K; distances between the labels of the subunits of one channel

Protein | stoichiometry N
B1 | 5
B2 | 5
B3 | 5
